From article PMC9267027, “Discovery of a New Microbial Origin Cold-Active Neopullulanase Capable for Effective Conversion of Pullulan to Panose” (International Journal of Molecular Sciences, 2022)
Values joined by “and” are separate entries in the source; they are usually repeats but may differ in a detail not shown here. Identical values can stand only once.

Target: the molecule itself
Test: AUC; sedimentation velocity, 50 mM Na2HPO4-NaH2PO4 buffer pH 7.0, 20 °C, 38,000 rpm, absorbance at 280 nm, c(s) model in SEDFIT; oligomeric state

B1: Maltogenic amylase (MAase) ThMA from the Thermus strain (enzyme)
chain: MRKEAIHHRSTDNFAYAYDSETLHLRLQTKKNDVDHVELLFGDPYEWHDGAWQFQTMPMRKTGSDGLFDYWLAEVKPPYRRLRYGFVLRAGGEKLVYTEKGFYHEAPSDDTAYYFCFPFLHRVDLFQAPDWVKDTVWYQIFPERFANGNPAISPKGARPWGSEDPTPTSFFGGDLQGIIDHLDYLADLGITGIYLTPIFRAPSNHKYDTADYFEIDPHFGDKETLKTLVKRCHEKGIRVMLDAVFNHCGYEFAPFQDVLKNGAASRYKDWFHIREFPLQTEPRPNYDTFAFVPHMPKLNTAHPEVKRYLLDVATYWIREFDIDGWRLDVANEIDHQFWREFRQAVKALKPDVYILGEIWHDAMPWLRGDQFDAVMNYPLADAALRFFAKEDMSASEFADRLMHVLHSYPKQVNEAAFNLLGSHDTPRLLTVCGGDVRKVKLLFLFQLTFTGSPCIYYGDEIGMTGGNDPECRKCMVWDPEKQNKELYEHVKQLIALRKQYRALRRGDVAFLTADDEVNHLVYAKTDGNETVMIIINRSNEAAEIPMPIDARGKWLVNLLTGERFAAEAETLCVSLPPYGFVLYAVESW
notes: ThMA, maltogenic amylase of a Thermus strain (AAC15072.1); used as the control in analytical ultracentrifugation; the construct is not described
  stoichiometry N: 2 and 4
